# Several values for one entry are separate records, joined by “and”; a condition that tells them apart may be missing. Identical values can stand only once. Like-named read-outs stand apart in the source and are kept apart here. No end group written: not given here.
# B1: MBP: myelin basic protein, kinase assay substrate (protein, UniProt P02687 1-169, looked up)
# Myelin basic protein: AAQKRPSQRSKYLASASTMDHARHGFLPRHRDTGILDSLGRFFGSDRGAPKRGSGKDGHHAARTTHYGSLPQKAQGHRPQDENPVVHFFKNIVTPRTPPPSQGKGRGLSLSRFSWGAEGQKPGFGYGGRASDYKSAHKGLKGHDAQGTLSKIFKLGGRDSRSGSPMARR
# Columns and labels:
# GSK3β = format: cell-based, human
# GSK3β, sequence (P49841 whole entry): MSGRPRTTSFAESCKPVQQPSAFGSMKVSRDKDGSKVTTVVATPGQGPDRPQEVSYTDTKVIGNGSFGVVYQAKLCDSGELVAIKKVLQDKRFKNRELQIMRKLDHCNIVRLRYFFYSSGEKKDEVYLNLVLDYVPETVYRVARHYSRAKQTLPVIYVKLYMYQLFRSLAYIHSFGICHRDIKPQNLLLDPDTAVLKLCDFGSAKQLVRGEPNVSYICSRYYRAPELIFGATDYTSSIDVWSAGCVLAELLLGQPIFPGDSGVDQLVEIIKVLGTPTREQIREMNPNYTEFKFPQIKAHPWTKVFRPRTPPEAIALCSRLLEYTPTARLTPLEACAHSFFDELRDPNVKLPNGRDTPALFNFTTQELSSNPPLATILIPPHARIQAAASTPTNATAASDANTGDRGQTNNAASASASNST
# RAC-PKα [1] = target: RAC-PKα (Homo sapiens, UniProt P31749)
# RAC-PKα (Homo sapiens, UniProt P31749), sequence (P31749 whole entry): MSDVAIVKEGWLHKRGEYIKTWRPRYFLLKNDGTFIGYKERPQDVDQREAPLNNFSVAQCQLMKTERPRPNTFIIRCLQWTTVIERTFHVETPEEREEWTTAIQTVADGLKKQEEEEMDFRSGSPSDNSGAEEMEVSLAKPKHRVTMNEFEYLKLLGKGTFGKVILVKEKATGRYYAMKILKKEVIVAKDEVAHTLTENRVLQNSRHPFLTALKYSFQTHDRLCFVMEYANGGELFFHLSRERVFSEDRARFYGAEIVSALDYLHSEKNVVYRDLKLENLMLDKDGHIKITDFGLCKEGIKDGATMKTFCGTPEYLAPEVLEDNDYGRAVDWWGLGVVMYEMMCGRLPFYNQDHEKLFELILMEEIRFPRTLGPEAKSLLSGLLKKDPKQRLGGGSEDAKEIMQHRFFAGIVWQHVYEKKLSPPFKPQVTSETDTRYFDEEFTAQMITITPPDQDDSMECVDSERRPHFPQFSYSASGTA
# RAC-PKα [2] = format: cell-based, human
# RAC-PK = RAC-PK activity immunoprecipitated from Swiss 3T3 cells (MBP substrate); format: cell-based; settings: for Increase in RAC-PK activity: Swiss 3T3 cells, 1 μM okadaic acid, 0.1 mM vanadate, insulin or 10% FCS
# GSK3 = format: cell-based
# RAC-PKα [3] = system: RAC-PKα
# MAPKAP kinase-1 = settings: cited from earlier work
# p70 S6 kinase = target: T1, p70 S6 kinase (Rattus norvegicus, UniProt P67999); settings: cited from earlier work; for Km: read-out: Km for phosphorylation by p70 S6 kinase
# T1 construct: from tissue; host or cells: rat liver
# T1 sequence (P67999 24-525): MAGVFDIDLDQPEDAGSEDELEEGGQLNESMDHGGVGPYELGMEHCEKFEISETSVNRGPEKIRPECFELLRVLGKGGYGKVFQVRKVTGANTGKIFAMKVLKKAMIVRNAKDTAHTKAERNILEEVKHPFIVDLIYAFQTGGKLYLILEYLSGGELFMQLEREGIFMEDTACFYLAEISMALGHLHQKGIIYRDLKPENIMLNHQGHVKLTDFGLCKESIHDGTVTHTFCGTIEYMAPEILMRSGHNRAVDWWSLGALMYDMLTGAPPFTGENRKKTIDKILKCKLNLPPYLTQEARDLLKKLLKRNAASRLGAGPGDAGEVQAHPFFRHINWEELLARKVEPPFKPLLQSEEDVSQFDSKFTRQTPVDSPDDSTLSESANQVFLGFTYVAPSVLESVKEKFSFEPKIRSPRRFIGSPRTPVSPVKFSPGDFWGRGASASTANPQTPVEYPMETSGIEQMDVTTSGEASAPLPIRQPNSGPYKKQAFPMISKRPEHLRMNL
# [4] = system: CC(C)C[C@H](NC(=O)[C@H](CO)NC(=O)[C@H](CO)NC(=O)[C@@H](NC(=O)[C@H](CCCNC(=N)N)NC(=O)[C@@H]1CCCN1C(=O)[C@@H](N)CCCNC(=N)N)[C@@H](C)O)C(=O)O; assay: purified protein, by the assay type; settings: other: phosphorylation by RAC-PKα; pH 7.5; 30.0 °C
# [5] = system: CC(C)[C@H](NC(=O)[C@@H](NC(=O)[C@H](CCCNC(=N)N)NC(=O)[C@@H]1CCCN1C(=O)[C@@H](N)CCCNC(=N)N)[C@@H](C)O)C(=O)N[C@@H](CO)C(=O)N[C@@H](Cc1ccccc1)C(=O)O; assay: purified protein, by the assay type; settings: other: phosphorylation by RAC-PKα; pH 7.5; 30.0 °C
# [6] = system: CC(C)[C@H](NC(=O)[C@H](CCCNC(=N)N)NC(=O)[C@@H]1CCCN1C(=O)[C@@H](N)CCCNC(=N)N)C(=O)N[C@@H](CO)C(=O)N[C@@H](CO)C(=O)N[C@@H](Cc1ccccc1)C(=O)O; assay: purified protein, by the assay type; settings: other: phosphorylation by RAC-PKα; pH 7.5; 30.0 °C
# [7] = system: CC(C)[C@H](NC(=O)[C@H](CO)NC(=O)[C@H](CO)NC(=O)[C@@H](NC(=O)[C@H](CCCNC(=N)N)NC(=O)[C@@H]1CCCN1C(=O)[C@@H](N)CCCNC(=N)N)[C@@H](C)O)C(=O)O; assay: purified protein, by the assay type; settings: other: phosphorylation by RAC-PKα; pH 7.5; 30.0 °C
# [8] = system: C[C@@H](O)[C@H](NC(=O)[C@H](CCCNC(=N)N)NC(=O)[C@@H]1CCCN1C(=O)[C@@H](N)CCCNC(=N)N)C(=O)NCC(=O)N[C@@H](CO)C(=O)N[C@@H](Cc1ccccc1)C(=O)O; assay: purified protein, by the assay type; settings: other: phosphorylation by RAC-PKα; pH 7.5; 30.0 °C
# [9] = system: C[C@@H](O)[C@H](NC(=O)[C@H](CCCNC(=N)N)NC(=O)[C@@H]1CCCN1C(=O)[C@@H](N)CCCNC(=N)N)C(=O)N[C@@H](CC(N)=O)C(=O)N[C@@H](CO)C(=O)N[C@@H](Cc1ccccc1)C(=O)O; assay: purified protein, by the assay type; settings: other: phosphorylation by RAC-PKα; pH 7.5; 30.0 °C
# [10] = system: C[C@@H](O)[C@H](NC(=O)[C@H](CCCNC(=N)N)NC(=O)[C@@H]1CCCN1C(=O)[C@@H](N)CCCNC(=N)N)C(=O)N[C@@H](CO)C(=O)N[C@@H](CO)C(=O)N[C@@H](CCCCN)C(=O)O; assay: purified protein, by the assay type; settings: other: phosphorylation by RAC-PKα; pH 7.5; 30.0 °C
# [11] = system: C[C@@H](O)[C@H](NC(=O)[C@H](CCCNC(=N)N)NC(=O)[C@@H]1CCCN1C(=O)[C@H](CCCNC(=N)N)NC(=O)CN)C(=O)N[C@@H](CO)C(=O)N[C@@H](CO)C(=O)N[C@@H](Cc1ccccc1)C(=O)O; assay: purified protein, by the assay type; settings: other: phosphorylation by RAC-PKα; pH 7.5; 30.0 °C
# [12] = system: C[C@H](NC(=O)CNC(=O)[C@H](CCCNC(=N)N)NC(=O)[C@@H]1CCCN1C(=O)[C@@H](N)CCCNC(=N)N)C(=O)N[C@@H](CO)C(=O)N[C@@H](Cc1ccccc1)C(=O)O; assay: purified protein, by the assay type; settings: other: phosphorylation by RAC-PKα; pH 7.5; 30.0 °C
# [13] = system: C[C@H](NC(=O)[C@H](C)NC(=O)[C@H](CCCNC(=N)N)NC(=O)[C@@H]1CCCN1C(=O)[C@@H](N)CCCNC(=N)N)C(=O)N[C@@H](CO)C(=O)N[C@@H](Cc1ccccc1)C(=O)O; assay: purified protein, by the assay type; settings: other: phosphorylation by RAC-PKα; pH 7.5; 30.0 °C
# [14] = system: C[C@H](NC(=O)[C@H](C)NC(=O)[C@H](CCCNC(=N)N)NC(=O)[C@@H]1CCCN1C(=O)[C@@H](N)CCCNC(=N)N)C(=O)N[C@H](C(=O)N[C@@H](Cc1ccccc1)C(=O)O)[C@@H](C)O; assay: purified protein, by the assay type; settings: pH 7.5; 30.0 °C
# [15] = system: C[C@H](NC(=O)[C@H](CCCNC(=N)N)NC(=O)[C@@H]1CCCN1C(=O)[C@@H](N)CCCNC(=N)N)C(=O)NCC(=O)N[C@@H](CO)C(=O)N[C@@H](Cc1ccccc1)C(=O)O; assay: purified protein, by the assay type; settings: other: phosphorylation by RAC-PKα; pH 7.5; 30.0 °C
# [16] = system: C[C@H](NC(=O)[C@H](CO)NC(=O)[C@H](CO)NC(=O)[C@@H](NC(=O)[C@H](CCCNC(=N)N)NC(=O)[C@@H]1CCCN1C(=O)[C@@H](N)CCCNC(=N)N)[C@@H](C)O)C(=O)O; assay: purified protein, by the assay type; settings: other: phosphorylation by RAC-PKα; pH 7.5; 30.0 °C
# [17] = system: C[C@H](NC(=O)[C@H](Cc1ccccc1)NC(=O)[C@H](CO)NC(=O)[C@H](CO)NC(=O)[C@@H](NC(=O)[C@H](CCCNC(=N)N)NC(=O)[C@@H]1CCCN1C(=O)[C@@H](N)CCCNC(=N)N)[C@@H](C)O)C(=O)O; assay: purified protein, by the assay type; settings: other: phosphorylation by RAC-PKα; pH 7.5; 30.0 °C
# [18] = system: C[C@H](NC(=O)[C@H](Cc1ccccc1)NC(=O)[C@H](CO)NC(=O)[C@H](CO)NC(=O)[C@@H](NC(=O)[C@H](CCCNC(=N)N)NC(=O)[C@H](C)NC(=O)[C@H](CCCNC(=N)N)NC(=O)CN)[C@@H](C)O)C(=O)O; assay: purified protein, by the assay type; settings: other: phosphorylation by RAC-PKα; pH 7.5; 30.0 °C
# [19] = system: N=C(N)NCCC[C@H](NC(=O)[C@@H]1CCCN1C(=O)[C@@H](N)CCCNC(=N)N)C(=O)NCC(=O)N[C@@H](CO)C(=O)N[C@@H](CO)C(=O)N[C@@H](Cc1ccccc1)C(=O)O; assay: purified protein, by the assay type; settings: other: phosphorylation by RAC-PKα; pH 7.5; 30.0 °C
# [20] = values marked *: data reported previously
molecule,measurement,setting,value
"HA-KD-RAC-PKα: kinase dead mutant, Lys179 changed to Ala",Increase in GSK3 activity on PP2A treatment,GSK3β,~12%
RPRNSSF [RPRNSSF],Km,RAC-PKα [1]; phosphorylation by RAC-PKα,> 500 µM
KPRTSSF [KPRTSSF],Km,RAC-PKα [1]; phosphorylation by RAC-PKα,> 500 µM
RPKTSSF [RPKTSSF],Km,RAC-PKα [1]; phosphorylation by RAC-PKα,> 500 µM
RPRTSSF [RPRTSSF],Km,RAC-PKα [1]; phosphorylation by RAC-PKα,5 µM
RPRTASF,Km,RAC-PKα [1],20 µM
same,V (0.1 mM),RAC-PKα [1],83
same,Vmax (U/mg),RAC-PKα [1],213 U/mg
insulin: insulin from Novo-Nordisk,Activation of transfected RAC-PKα,RAC-PKα [2],20 fold
same,Half time for activation of transfected RAC-PKα,RAC-PKα [2],1 min
same,Increase in RAC-PK activity,RAC-PK,4.5 fold
same,Increase in 32P-labelling of GSK3-α and GSK3-β,GSK3,60-100%
same,Inhibition of GSK3,GSK3,40-50%
same,Half-time (t0.5) of activation of RAC-PK,RAC-PKα [3],1 min
KKRNKTLSVA [peptide substrate with Lys at position n-3],Phosphorylation by RAC-PKα,RAC-PKα [1],does not phosphorylate
same,Km,MAPKAP kinase-1; read-out: Km for phosphorylation by MAPKAP-K1,17 µM
same,MAPKAP kinase-1 Vmax (U/mg),MAPKAP kinase-1; [20],840* U/mg
same,Km,p70 S6 kinase,34 µM
same,p70 S6 kinase Vmax (U/mg),p70 S6 kinase; [20],760* U/mg
RFRGGSF,Km,RAC-PKα [1],105 µM
same,V (0.1 mM),RAC-PKα [1],55
same,Vmax (U/mg),RAC-PKα [1],345 U/mg
GRPRTSSFAEG,Km,RAC-PKα [1]; phosphorylation by RAC-PKα,4 µM
RPRTSS [RPRTSS],Km,RAC-PKα [1]; phosphorylation by RAC-PKα,> 500 µM
RPRASSF,Km,RAC-PKα [1],12 µM
same,V (0.1 mM),RAC-PKα [1],89
same,Vmax (U/mg),RAC-PKα [1],230 U/mg
C=C1[C@@H](O)[C@@H]2O[C@]3(CC[C@H](/C=C/[C@@H](C)[C@@H]4CC(C)=C[C@@]5(O[C@H](C[C@@](C)(O)C(=O)O)CC[C@H]5O)O4)O3)CC[C@H]2O[C@@H]1[C@@H](O)C[C@H](C)[C@H]1O[C@@]2(CCCCO2)CC[C@H]1C [okadaic acid],Activation of RAC-PK,"RAC-PK; Swiss 3T3, simultaneous 1 μM okadaic acid and 10% serum",5 fold
same,Increase in RAC-PK activity,RAC-PK,3 fold
KKRNRTLSVA,Km,p70 S6 kinase,1.5 µM
IGF-1,Activation of transfected RAC-PKα,RAC-PKα [2],46 fold and 38 fold
same,Half time for activation of transfected RAC-PKα,RAC-PKα [2],1 min
RPRTSTF [RPRTSTF],Km,RAC-PKα [1]; phosphorylation by RAC-PKα,30 µM
[O]=[V]([O-])([O-])[O-] [vanadate],Increase in RAC-PK activity,RAC-PK,11 fold
RAC-PKα (Homo sapiens),Km,[4],8 µM
same,Vmax,[4],278 U/mg
same,Km,[5],30 µM
same,Vmax,[5],365 U/mg
same,Km,[6],25 µM
same,Vmax,[6],273 U/mg
same,Km,[7],21 µM
same,Vmax,[7],300 U/mg
same,Km,[8],25 µM
same,Vmax,[8],233 U/mg
same,Km,[9],30 µM
same,Vmax,[9],300 U/mg
same,Km,[10],80 µM
same,Vmax,[10],308 U/mg
same,Km,[11],8 µM
same,Vmax,[11],385 U/mg
same,Km,[12],105 µM
same,Vmax,[12],160 U/mg
same,Km,[13],25 µM
same,Vmax,[13],215 U/mg
same,Km,[14],25 µM
same,Vmax,[14],230 U/mg
same,Km,[15],49 µM
same,Vmax,[15],114 U/mg
same,Km,[16],250 µM
same,Vmax,[16],265 U/mg
same,Km,[17],8 µM
same,Vmax,[17],305 U/mg
same,Km,[18],10 µM
same,Vmax,[18],230 U/mg
same,Km,[19],60 µM
same,Vmax,[19],163 U/mg
RPRTSSE [RPRTSSE],Km,RAC-PKα [1]; phosphorylation by RAC-PKα,> 500 µM
B1,Km,RAC-PKα [1],5 µM
same,Vmax (U/mg),RAC-PKα [1],25 U/mg

# — patent US7897371B2, “Activation of mutated RAC-PK” (Novartis AG, priority 1995, dated 2011)
